{"source": "patent US20250242021A1", "about": "(BLUESPHERE BIO, published 2025)", "binders": {"B1": {"name": "anti-HA-1 “H” epitope TCR (TCR, V domains shown)", "V domain 1": "AQSVAQPEDQVNVAEGNPLTVKCTYSVSGNPYLFWYVQYPNRGLQFLLKYITGDNLVKGSYGFEAEFNKSQTSFHLKKPSALVSDSALYFCAVRAPTSGTYKYIFGTGTRLKVLA", "V domain 2": "GVSQDPRHKITKRGQNVTFRCDPISEHNRLYWYRQTLGQGPEFLTYFQNEAQLEKSRLLSDRFSAERPKGSFSTLEIQRTEQGDSAMYLCASSLVSGNEQFFGPGTRLTVLE"}}, "target": "HA-1 “H” peptide (…) presented on LCL222 cells (H/H)", "test": "cell-based or functional assay"}
{"binder": "B1", "values": [{"measurement": "E:T ratio at which target cells were almost undetectable, cytotoxicity killing assay", "value": "1.38 E:T ratio"}, {"measurement": "EC50, cytotoxicity killing assay (E:T ratio)", "value": "0.49 E:T ratio"}]}
